These results are taken from US20100261252A1.

This assay has as its target human IgA1 (human) (UniProt P01876). As to the kind of experiment: cell-based or functional assay.
UniProt P01876, sequence (P01876 other isoform, or with tags, fused parts or gaps): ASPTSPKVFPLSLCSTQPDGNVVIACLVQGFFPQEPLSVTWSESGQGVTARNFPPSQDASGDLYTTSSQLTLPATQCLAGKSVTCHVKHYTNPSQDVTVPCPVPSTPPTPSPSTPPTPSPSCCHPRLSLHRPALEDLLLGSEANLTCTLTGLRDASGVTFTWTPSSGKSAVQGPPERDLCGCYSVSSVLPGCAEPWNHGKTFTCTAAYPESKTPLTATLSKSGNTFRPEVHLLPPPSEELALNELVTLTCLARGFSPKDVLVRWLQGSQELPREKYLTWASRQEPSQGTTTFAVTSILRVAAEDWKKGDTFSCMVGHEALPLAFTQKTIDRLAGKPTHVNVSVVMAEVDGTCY

In turn, “C-terminal His-tagged H. influenzae IgA1 protease (proteolytic protease domain, lacking the α protein and β-core domains) (from UniProt P44969 26-1014) (enzyme)” displayed a human IgA1 cleavage activity of purified refolded IgA1 protease (Experion automated electrophoresis) (ng IgA1/uL/min/ng protease) of 50.
